Source: patent US20130130273A1 (KOREA BASIC SCIENCE INSTITUTE, published 2013)

Biological target: TMD-mRFP-RelA (UniProt Q04206 1-551)
Test: co-translocation of a three-protein complex (RelA, IkB, p50) after 1 µM PMA, confocal microscopy, HEK293 cells

Sequence of TMD-mRFP-RelA (Q04206 other isoform, or with tags, fused parts or gaps limits assumed): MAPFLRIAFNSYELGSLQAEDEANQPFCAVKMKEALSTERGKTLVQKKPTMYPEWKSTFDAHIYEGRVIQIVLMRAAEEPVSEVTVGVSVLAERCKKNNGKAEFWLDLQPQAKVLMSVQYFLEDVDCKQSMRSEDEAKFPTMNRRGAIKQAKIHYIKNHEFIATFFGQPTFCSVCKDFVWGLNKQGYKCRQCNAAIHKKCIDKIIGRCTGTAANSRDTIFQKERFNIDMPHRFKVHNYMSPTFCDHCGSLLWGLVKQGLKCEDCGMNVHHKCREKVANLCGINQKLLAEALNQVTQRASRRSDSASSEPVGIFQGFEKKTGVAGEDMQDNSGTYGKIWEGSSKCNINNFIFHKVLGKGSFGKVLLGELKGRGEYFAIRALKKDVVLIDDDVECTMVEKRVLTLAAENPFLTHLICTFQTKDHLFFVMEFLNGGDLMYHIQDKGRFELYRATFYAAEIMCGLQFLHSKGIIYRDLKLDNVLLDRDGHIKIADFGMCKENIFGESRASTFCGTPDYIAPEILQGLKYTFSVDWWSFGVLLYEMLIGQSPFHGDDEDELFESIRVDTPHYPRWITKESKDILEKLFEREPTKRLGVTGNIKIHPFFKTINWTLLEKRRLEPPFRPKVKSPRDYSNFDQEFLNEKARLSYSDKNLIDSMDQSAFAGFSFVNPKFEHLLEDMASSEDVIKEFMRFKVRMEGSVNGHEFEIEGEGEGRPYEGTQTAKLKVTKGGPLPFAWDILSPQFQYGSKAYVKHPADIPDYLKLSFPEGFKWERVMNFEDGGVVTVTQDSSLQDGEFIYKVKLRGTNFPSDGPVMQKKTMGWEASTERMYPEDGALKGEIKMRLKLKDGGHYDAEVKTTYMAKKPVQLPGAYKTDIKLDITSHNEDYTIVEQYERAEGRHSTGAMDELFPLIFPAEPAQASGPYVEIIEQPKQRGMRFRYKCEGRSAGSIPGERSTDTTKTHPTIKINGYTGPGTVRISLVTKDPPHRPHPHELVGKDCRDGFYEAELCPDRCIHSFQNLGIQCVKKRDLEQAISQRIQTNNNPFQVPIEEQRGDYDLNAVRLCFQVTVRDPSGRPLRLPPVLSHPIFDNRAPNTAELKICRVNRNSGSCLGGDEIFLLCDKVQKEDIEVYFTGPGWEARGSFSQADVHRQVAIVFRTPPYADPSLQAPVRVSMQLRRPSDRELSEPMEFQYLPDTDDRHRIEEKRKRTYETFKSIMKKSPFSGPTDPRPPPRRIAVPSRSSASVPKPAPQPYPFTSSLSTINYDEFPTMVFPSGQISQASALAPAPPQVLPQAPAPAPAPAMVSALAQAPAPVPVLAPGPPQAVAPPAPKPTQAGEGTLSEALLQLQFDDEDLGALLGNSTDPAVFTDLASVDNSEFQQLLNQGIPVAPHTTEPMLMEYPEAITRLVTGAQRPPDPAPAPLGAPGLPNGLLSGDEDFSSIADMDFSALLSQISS

- binding result: binds
B1: HcR-p50 (other)
chain: MVSGLLKESMRIKMYMEGTVNGHYFKCEGEGDGNPFAGTQSMRIHVTEGAPLPFAFDILAPCCEYGSRTFVHHTAEIPDFFKQSFPEGFTWERTTTYEDGGILTAHQDTSLEGNCLIYKVKVHGTNFPADGPVMKNKSGGWEPSTEVVYPENGVLCGRNVMALKVGDRHLICHHYTSYRSKKAVRALTMPGFHFTDIRLQMLRKKKDEYFELYEASVARYSDLPEKANMAEDDPYLGRPEQMFHLDPSLTHTIFNPEVFQPQMALPTDGPYLQILEQPKQRGFRFRYVCEGPSHGGLPGASSEKNKKSYPQVKICNYVGPAKVIVQLVTNGKNIHLHAHSLVGKHCEDGICTVTAGPKDMVVGFANLGILHVTKKKVFETLEARMTEACIRGYNPGLLVHPDLAYLQAEGGGDRQLGDREKELIRQAALQQTKEMDLSVVRLMFTAFLPDSTGSFTRRLEPVVSDAIYDSKAPNASNLKIVRMDRTAGCVTGGEEIYLLCDKVQKDDIQIRFYEEEENGGVWEGFGDFSPTDVHRQFAIVFKTPKYKDINITKPASVFVQLRRKSDLETSEPKPFLYYPEIKDKEEVQRKRQKLMPNFSDSFGGGSGAGAGGGGMFGSGGGGGGTGSTGPGYSFPHYGFPTYGGITFHPGTTKSNAGMKHG
notes: also called second construct 2
